# Experimental data published in US7105647 (WISCONSIN ALUMNI RESEARCH FOUNDATION, dated 2006).
# T1: human aryl hydrocarbon receptor (AHR), full length (human, UniProt P35869 1-848)
# T1 construct: Full length in yeast (PRSAHR) and in the Hsp90 co-IP (huAHR); also called huAHR; Ah receptor
# T1 sequence (looked up): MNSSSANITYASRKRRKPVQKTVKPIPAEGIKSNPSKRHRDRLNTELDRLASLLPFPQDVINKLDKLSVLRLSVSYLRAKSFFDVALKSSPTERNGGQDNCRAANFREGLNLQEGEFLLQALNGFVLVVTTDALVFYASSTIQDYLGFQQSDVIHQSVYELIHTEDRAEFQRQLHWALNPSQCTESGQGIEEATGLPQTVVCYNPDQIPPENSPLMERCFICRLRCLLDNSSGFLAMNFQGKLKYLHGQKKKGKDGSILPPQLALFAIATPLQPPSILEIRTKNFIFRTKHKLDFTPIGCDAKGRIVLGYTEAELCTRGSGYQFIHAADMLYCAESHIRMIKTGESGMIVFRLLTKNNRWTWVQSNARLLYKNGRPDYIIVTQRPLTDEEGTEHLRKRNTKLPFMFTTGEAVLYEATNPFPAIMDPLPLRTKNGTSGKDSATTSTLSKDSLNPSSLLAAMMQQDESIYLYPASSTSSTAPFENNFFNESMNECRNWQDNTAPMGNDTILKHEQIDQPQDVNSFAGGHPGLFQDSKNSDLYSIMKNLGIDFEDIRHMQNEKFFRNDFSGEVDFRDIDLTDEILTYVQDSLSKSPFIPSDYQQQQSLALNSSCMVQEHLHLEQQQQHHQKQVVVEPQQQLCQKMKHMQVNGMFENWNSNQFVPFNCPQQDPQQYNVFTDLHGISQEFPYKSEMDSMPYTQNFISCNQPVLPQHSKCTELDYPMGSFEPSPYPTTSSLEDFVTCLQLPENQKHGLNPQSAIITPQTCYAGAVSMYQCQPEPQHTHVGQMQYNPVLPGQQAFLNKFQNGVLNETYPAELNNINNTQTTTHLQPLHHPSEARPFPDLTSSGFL
# Experiments:
# [1] = biological target: T1, human aryl hydrocarbon receptor (AHR), …; assay: yeast two-hybrid, lacZ reporter, with and without 1 µM βNF
# From the text: (§1) This plasmid was designated PL371, and subsequently was digested with NotI and XhoI, this fragment cloned into the corresponding sites of pSGBCU11. This clone was designated PL574. The LexAMOP fusion protein constructs were cotransformed with a yeast expression vector containing the full length AHR or ARNT into L40, a yeast strain containing integrated lacZ and HIS3 reporter genes. As controls, LexAAHR and LexAARNT were cotransformed with AHR and ARNT. The strength of interaction was visually characterized by X-Gal (5-bromo-4-chloro-3-indolyl-(-D-galactoside) plate assays, performed after three days growth on selective media (Bohen et al, Proc. Natl. Acad. Sci. USA 90: 11424–11428, 1993). To provide quantitation of the interaction strength, multiple colonies from yeast harboring each bHLH-PAS combination colonies were grown overnight in liquid media. Liquid cultures were grown for 5 hours, and assayed for lacZ activity using the Galacto-Light chemiluminescence reporter system (Tropix, Bedford, Mass.). To determine the effect of AHR agonists on these interactions, yeast were also grown on plates or in liquid culture with and without 1 μM βNF (Carver et al., J. Biol. Chem. 269: 30109–30112, 1994).
# (§2) 2. Interaction of MOPs with the AHR and ARNT in vivo; Yeast two-hybrid experiments. […]
# [2] = biological target: T2, AH receptor nuclear translocator (ARNT), full length (human, UniProt P27540 1-789); assay: yeast two-hybrid with full-length ARNT, lacZ reporter
# T2 construct: Full length: in vitro translated, expressed in yeast (PL574) or transfected; Endogenous ARNT in the Hep3B experiment; also called huARNT; hARNT
# T2 sequence (P27540 whole entry): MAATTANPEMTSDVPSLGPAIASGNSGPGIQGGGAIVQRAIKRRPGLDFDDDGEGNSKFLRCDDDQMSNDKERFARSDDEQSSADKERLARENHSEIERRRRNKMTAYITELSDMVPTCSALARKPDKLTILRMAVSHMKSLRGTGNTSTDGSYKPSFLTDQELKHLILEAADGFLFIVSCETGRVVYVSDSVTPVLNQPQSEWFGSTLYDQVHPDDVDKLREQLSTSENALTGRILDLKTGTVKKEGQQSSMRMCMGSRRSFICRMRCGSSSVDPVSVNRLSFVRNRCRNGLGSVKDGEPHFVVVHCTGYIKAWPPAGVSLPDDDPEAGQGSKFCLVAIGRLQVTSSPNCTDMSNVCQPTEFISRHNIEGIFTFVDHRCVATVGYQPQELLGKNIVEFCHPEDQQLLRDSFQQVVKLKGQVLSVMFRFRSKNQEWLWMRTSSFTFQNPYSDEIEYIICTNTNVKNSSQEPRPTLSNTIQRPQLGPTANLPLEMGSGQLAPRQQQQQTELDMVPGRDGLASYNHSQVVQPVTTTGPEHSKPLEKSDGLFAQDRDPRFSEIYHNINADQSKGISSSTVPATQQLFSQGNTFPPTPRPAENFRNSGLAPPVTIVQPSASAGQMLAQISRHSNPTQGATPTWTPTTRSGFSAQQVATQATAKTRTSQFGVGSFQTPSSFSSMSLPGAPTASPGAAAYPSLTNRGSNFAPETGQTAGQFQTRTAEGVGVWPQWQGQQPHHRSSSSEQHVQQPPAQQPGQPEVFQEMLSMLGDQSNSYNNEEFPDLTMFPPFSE
# From the text: as §1, §2
binder,measurement,setting,value
"LexAMOP4 (other, range 1-202; also called LexAbHLH-PAS fusion of MOP4; MOP4 bait plasmid) MKALTARQQEVFDLIRDHISQTGMPPTRAEIAQRLGFRSPNAAEEHLKALARKGVIEIVSGASRGIRLLQEEEEGLPLVGRVAAGEPLLAQQHIEGHYQVDPSLFKPNADFLLRVSGMSMKDIGIMDGDLLAVHKTQDVRNGQVVVARIDDEVTVKRLKKQGNKVELLPENSEFKPIVVDLRQQSFTIEGLAVGVIRNGDWLMDEDEKDRAKRASRNKSEKKRRDQFNVLIKELSSMLPGNTRKMDKTTVLEEVIGFLQKHNEVSAQTEICDIQQDWKPSFLSNEEFTQLMLEALDGFIIAVTTDGSIIYVSDSITPLLGHLPSDVMDQNLLNFLPEQEHSEVYKILSSHMLVTDSPSPEYLKSDGDLEFYCHLLRGSLNPKEFPTYEYIKFVGNFRSYNNVPSPSCNGFDNTLSRPCRVPLGKEVCFIATVRLATPQFLKEMCIVDEPLEEFTSRHSLEWKFLFLDHRAPPIIGYLPFEVLGTSGYDYYHIDDLELLARCHQHLMQFGKGKSCCYRFLTKGQQWIWLQTHYYITYHQWNSKPEFIVCTHSVVSYADVRVERRQELA",binding result,[1],no binding
same,binding result,[2],no binding
